From paper PMC6202814

B1: L-rhamnulose-1-phosphate aldolase (RhaD) (Escherichia coli K-12) (protein)
chain: MQNITQSWFVQGMIKATTDAWLKGWDERNGGNLTLRLDDADIAPYHDNFHQQPRYIPLSQPMPLLANTPFIVTGSGKFFRNVQLDPAANLGIVKVDSDGAGYHILWGLTNEAVPTSELPAHFLSHCERIKATNGKDRVIMHCHATNLIALTYVLENDTAVFTRQLWEGSTECLVVFPDGVGILPWMVPGTDEIGQATAQEMQKHSLVLWPFHGVFGSGPTLDETFGLIDTAEKSAQVLVKVYSMGGMKQTISREELIALGKRFGVTPLASALAL
B2: L-fuculose-1-phosphate aldolase (FucA) (Escherichia coli K-12) (protein)
chain: MERNKLARQIIDTCLEMTRLGLNQGTAGNVSVRYQDGMLITPTGIPYEKLTESHIVFIDGNGKHEEGKLPSSEWRFHMAAYQSRPDANAVVHNHAVHCTAVSILNRSIPAIHYMIAAAGGNSIPCAPYATFGTRELSEHVALALKNRKATLLQHHGLIACEVNLEKALWLAHEVEVLAQLYLTTLAITDPVPVLSDEEIAVVLEKFKTYGLRIEE

How the values were obtained:
[1] = substrate: O=C(CO)CO; experiment: purified protein; settings: acceptor varied 2-80 mM, donor DHAP 60 mM, 50 mM TEA pH 7.5, 25 °C, apparent
[2] = substrate: O=C[C@@H](O)CO; experiment: purified protein; settings: donor DHAP 60 mM, 50 mM TEA pH 7.5, 25 °C, apparent

Protein	Km [1] [mM]	Vmax [1] [µmol/min/mg]	kcat [1] [s⁻¹]	kcat/Km [1] [M⁻¹ s⁻¹]	Km ([2]; acceptor varied 0.2-60 mM) [mM]	Vmax ([2]; acceptor varied 0.2-60 mM) [µmol/min/mg]	kcat ([2]; acceptor varied 0.2-60 mM) [s⁻¹]	kcat/Km ([2]; acceptor varied 0.2-60 mM) [M⁻¹ s⁻¹]	Km ([2]; acceptor varied 0.5-60 mM) [mM]	Vmax ([2]; acceptor varied 0.5-60 mM) [µmol/min/mg]	kcat ([2]; acceptor varied 0.5-60 mM) [s⁻¹]	kcat/Km ([2]; acceptor varied 0.5-60 mM) [M⁻¹ s⁻¹]
B1	23.4 ± 9.69	0.86	4.1	180	40.8 ± 5.8	4.3	20.5	500				
B2									54.1 ± 3.6	1.5	5	92
